B1: control Antibody M30-H1-L4 (antibody, human IgG1, kappa, V domains shown)
VH: QVQLVQSGAEVKKPGSSVKVSCKASGYTFTNYVMHWVRQAPGQGLEWMGYINPYNDDVKYNEKFKGRVTITADESTSTAYMELSSLRSEDTAVYYCARWGYYGSPLYYFDYWGQGTLVTVSS
VL: EIVLTQSPATLSLSPGERATLSCRASSRLIYMHWYQQKPGQAPRPLIYATSNLASGIPARFSGSGSGTDFTLTISSLEPEDFAVYYCQQWNSNPPTFGQGTKVEIKR
notes: Control anti-B7-H3 antibody
B2: ADC2 (control drug) (antibody, human IgG1, kappa, V domains shown)
VH: EVQLVQSGAEVKKSGESLKISCKASGYTFTDYDINWVRQMPGKGLEWIGWIFPGDDTTKYNEKFKGQVTLSADKSTNTAYMQWSSLKASDTAMYYCARSPSFDYWGQGTLVTVSS
VL: QIVLTQSPGTLSLSPGERATLSCSASSTIGFMYWYQQKPGQAPRRWIYDTSKLASGVPDRFSGSGSGTDYTLTISRLEPEDFAVYYCHQRSSYPTFGQGTKVEIKR
modifications: MC-GGFG-DXD (Deruxtecan) conjugated after TCEP reduction; DAR (p) 3.7 for the whole antibody; sites not stated
B3: Antibody V3 (antibody, human IgG1, kappa, V domains shown)
VH: B2 VH
VL: B2 VL
notes: Humanized from chimeric antibody M1; also called humanized antibody V3
B4: Antibody M1 (antibody, human IgG1, kappa, V domains shown)
VH: QVQLQQSGPELVKPGASVRISCKASGYTFTDYDINWVQQRPGQGLEWIGWIFPGDDTTKYNEKFKGRATLTADKSSNTAYMQLNGLTSENSAVYFCARSPSFDYWGQGTLVTVSS
VL: QIVLTQSPAIMSASPGERVTMTCSASSTIGFMYWYQQKPGTSPKRWIYDTSKLASGVPARFSVSGSGTSYSLTISSMEAEDAATYYCHQRSSYPTFGGGTKLEIKR
notes: Chimeric antibody: murine variable regions on human IgG1 and light chain constant regions; expressed in HEK293F cells; also called chimeric antibody M1
B5: Antibody M2 (antibody, human IgG1, kappa, V domains shown)
VH: B4 VH
VL: DIKMTQSPSSMYASLGERVTITCKASQDINRFLSWFQQKPGKSPKTLIYRANRLRDGVPSRFSGNGSGQDYSLTISSLEYEDMGIYYCLQYDEFPPFTFGSGTKLEIKR
notes: Chimeric antibody: murine variable regions on human IgG1 and light chain constant regions; expressed in HEK293F cells; also called chimeric antibody M2

How the values were obtained:
[1] = target: T1, hB7-H3-Fc; assay: ELISA on coated hB7-H3-Fc (2 ug/mL), HRP anti-human kappa secondary, A450, antibody from 300 nM in 3-fold dilutions; axis 'Concentration' has no unit, nM from p-1066
T1 construct: also called antigen hB7-H3-Fc

[2] = target: T2, antigen hB7-H3-His (human, UniProt Q5ZPR3 29-461); assay: SPR, BiaCore T200, antibody captured on Protein A chip, hB7-H3-His as analyte, 1:1 model
T2 construct: residues 1-28 are left out on that ground
T2 sequence: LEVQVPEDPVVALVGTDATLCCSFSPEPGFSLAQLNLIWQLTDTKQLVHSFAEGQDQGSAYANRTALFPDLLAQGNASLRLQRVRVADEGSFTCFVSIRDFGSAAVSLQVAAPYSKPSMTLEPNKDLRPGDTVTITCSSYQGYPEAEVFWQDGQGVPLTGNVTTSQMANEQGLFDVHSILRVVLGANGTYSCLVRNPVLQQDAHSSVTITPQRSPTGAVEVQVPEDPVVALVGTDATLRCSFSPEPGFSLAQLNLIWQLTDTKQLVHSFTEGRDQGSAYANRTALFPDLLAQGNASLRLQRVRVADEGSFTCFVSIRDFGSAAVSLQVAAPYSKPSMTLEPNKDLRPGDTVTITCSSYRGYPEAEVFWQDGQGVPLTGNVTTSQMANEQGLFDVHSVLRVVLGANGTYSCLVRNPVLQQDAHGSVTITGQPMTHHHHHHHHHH

[3] = target: T3, B7-H3 on MDA-MB-468 cells (human, UniProt Q5ZPR3); assay: flow cytometry on MDA-MB-468 cells; blank V2-R 0.9%
T3 construct: endogenous, on the cell surface
T3 sequence (cell surface antigen, looked up): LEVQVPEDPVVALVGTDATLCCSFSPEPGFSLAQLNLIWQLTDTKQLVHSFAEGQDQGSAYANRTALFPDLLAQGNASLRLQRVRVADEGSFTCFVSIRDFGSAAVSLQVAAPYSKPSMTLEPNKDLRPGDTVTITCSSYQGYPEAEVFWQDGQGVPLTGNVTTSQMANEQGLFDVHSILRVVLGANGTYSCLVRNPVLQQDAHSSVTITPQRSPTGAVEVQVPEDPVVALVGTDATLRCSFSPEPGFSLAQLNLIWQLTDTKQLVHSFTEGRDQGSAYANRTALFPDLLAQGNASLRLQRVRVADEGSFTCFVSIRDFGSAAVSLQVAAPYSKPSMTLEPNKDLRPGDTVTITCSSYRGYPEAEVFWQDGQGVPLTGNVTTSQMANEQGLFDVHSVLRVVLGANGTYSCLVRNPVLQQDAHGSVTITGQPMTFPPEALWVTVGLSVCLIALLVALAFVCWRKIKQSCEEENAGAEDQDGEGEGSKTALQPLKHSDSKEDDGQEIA

[4] = target: T4, VISTA (NCBI Reference Sequence: NP_071436.1) on VISTA-CHO cells (UniProt Q9H7M9 33-311, limits assumed); assay: flow cytometry on VISTA-CHO cells, PE anti-human IgG Fc secondary
T4 construct: whole, on cells

[5] = target: T3, B7-H3 on MDA-MB-468 cells; assay: flow cytometry on MDA-MB-468 cells, PE anti-human IgG Fc secondary, antibody from 100 nM in 3-fold dilutions; axis 'Concentration' has no unit, nM from p-1056
[6] = target: T5, Lag3 (NCBI Reference Sequence: NP_002277.4) on Lag3-CHO cells (UniProt P18627 23-525, limits assumed); assay: flow cytometry on Lag3-CHO cells, PE anti-human IgG Fc secondary
T5 construct: whole, on cells
T5 sequence (looked up): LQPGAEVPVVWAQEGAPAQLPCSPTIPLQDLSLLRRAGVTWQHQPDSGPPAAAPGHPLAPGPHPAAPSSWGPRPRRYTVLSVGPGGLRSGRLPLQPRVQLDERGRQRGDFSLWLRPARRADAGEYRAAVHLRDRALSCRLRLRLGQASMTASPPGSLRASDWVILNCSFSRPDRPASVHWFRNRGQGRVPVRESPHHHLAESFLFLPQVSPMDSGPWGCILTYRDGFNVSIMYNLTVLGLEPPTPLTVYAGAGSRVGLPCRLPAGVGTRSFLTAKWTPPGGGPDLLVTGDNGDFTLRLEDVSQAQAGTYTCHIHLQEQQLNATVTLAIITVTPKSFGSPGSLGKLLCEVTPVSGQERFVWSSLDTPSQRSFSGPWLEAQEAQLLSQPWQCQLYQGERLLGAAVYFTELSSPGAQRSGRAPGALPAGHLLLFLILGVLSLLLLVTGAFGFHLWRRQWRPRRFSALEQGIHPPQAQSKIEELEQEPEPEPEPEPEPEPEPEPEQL

[7] = target: T6, Tim3 (NCBI Reference Sequence: NP_116171.3) on Tim3-CHO cells (UniProt Q8TDQ0 22-301, limits assumed); assay: flow cytometry on Tim3-CHO cells, PE anti-human IgG Fc secondary
T6 construct: whole, on cells

[8] = target: T7, B7-H3 (NCBI Reference Sequence: NP_001019907.1) on CHO-K1-B7-H3 cells (human, UniProt Q5ZPR3 29-534); assay: cell-based or functional assay
T7 sequence: T3 sequence (cell surface antigen, looked up)

[9] = target: T8, B7-H3 on Calu-6 cells (UniProt Q5ZPR3 29-534, limits assumed); assay: cell-based or functional assay
T8 sequence (looked up): T3 sequence (cell surface antigen, looked up)

[10] = target: T6, Tim3 (NCBI Reference Sequence: …); assay: flow cytometry on Tim3-CHO cells
[11] = target: T5, Lag3 (NCBI Reference Sequence: …); assay: flow cytometry on Lag3-CHO cells
[12] = target: T2, antigen hB7-H3-His; assay: ELISA, antigen coated at 2 µg/mL, anti-human kappa light chain HRP detection
[13] = target: T9, cynomolgus monkey B7-H3 (novoprotein CA61) (cynomolgus monkey); assay: as above
T9 construct: Bought protein

[14] = target: T4, VISTA (NCBI Reference Sequence: …); assay: flow cytometry on VISTA-CHO cells; blank P3 0.1%; the filing says V1-V5 did not bind
[15] = target: T10, mouse B7-H3 (SinoBiological, 50973-M08H) (mouse, UniProt Q8VE98 29-244); assay: ELISA, antigen coated at 2 µg/mL, Antibody V3 in 2-fold dilutions (EC50 cell in Table 12: NA)
T10 construct: Bought protein
T10 sequence (looked up): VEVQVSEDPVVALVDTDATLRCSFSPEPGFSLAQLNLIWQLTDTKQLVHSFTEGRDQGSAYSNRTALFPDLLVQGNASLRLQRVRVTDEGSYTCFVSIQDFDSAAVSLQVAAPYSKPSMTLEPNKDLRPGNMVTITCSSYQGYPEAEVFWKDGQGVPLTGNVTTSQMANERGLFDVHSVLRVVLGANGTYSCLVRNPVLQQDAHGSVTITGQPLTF

[16] = target: T5, Lag3 (NCBI Reference Sequence: …); assay: flow cytometry on Lag3-CHO cells; blank P3 0.5%; the filing says V1-V5 did not bind
[17] = target: T4, VISTA (NCBI Reference Sequence: …); assay: flow cytometry on VISTA-CHO cells
[18] = target: T2, antigen hB7-H3-His; assay: SPR, BiaCore T200, ADC or antibody captured on Protein A chip, hB7-H3-His as analyte, 1:1 model
[19] = target: T6, Tim3 (NCBI Reference Sequence: …); assay: flow cytometry on Tim3-CHO cells; blank P3 0.2%; the filing says V1-V5 did not bind
[20] = target: T2, antigen hB7-H3-His; assay: SPR, BiaCore T200, ADC or antibody captured on Protein A chip, hB7-H3-His as analyte, 1:1 model; naked Antibody V3, not conjugated

T1 sequence (fusion chain, as listed by the source limits assumed): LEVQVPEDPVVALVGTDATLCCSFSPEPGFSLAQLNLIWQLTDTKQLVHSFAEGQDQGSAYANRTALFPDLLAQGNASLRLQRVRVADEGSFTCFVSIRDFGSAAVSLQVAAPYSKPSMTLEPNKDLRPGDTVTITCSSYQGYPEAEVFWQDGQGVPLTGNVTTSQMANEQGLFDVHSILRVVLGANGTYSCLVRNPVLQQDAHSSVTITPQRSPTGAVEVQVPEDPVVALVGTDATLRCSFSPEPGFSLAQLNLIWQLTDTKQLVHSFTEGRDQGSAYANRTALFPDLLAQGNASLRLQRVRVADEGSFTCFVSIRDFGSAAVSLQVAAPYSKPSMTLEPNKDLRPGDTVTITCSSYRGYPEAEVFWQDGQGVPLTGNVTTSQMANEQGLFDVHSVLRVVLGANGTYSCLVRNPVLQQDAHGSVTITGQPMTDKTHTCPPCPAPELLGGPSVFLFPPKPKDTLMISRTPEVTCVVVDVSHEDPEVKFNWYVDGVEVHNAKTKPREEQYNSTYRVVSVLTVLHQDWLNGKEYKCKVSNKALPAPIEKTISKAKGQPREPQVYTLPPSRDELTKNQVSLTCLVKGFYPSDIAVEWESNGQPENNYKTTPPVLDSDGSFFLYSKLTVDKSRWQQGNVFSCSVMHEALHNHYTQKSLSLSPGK

Binder	EC50 [1]	Kd [2]	koff [2]	kon [2]	% of cells in gate V1-R at 0.411 nM [3]	% of cells in gate V1-R at 1.23 nM [3]	% of cells in gate V1-R at 3.7 nM [3]	% of cells in gate V1-R at 11.11 nM [3]	% of cells in gate V1-R at 33.33 nM [3]	% of cells in gate V1-R at 100 nM [3]	binding result [4]	EC50 [5]	binding result [6]	binding result [7]	further results
B1	3.73 nM	0.986 nM	0.00024 s⁻¹	244000 M⁻¹ s⁻¹	1.1%	4%	38.4%	97.2%	98.8%	99.3%	no binding (tested: 100 nM)	8.54 nM	no binding (tested: 100 nM)	no binding (tested: 100 nM)	–
B2	–	–	–	–	–	–	–	–	–	–	–	–	–	–	IC50 (nM), in-vitro cytotoxicity, CCK8 [8]: 0.77 nM; IC50 (nM), in-vitro cytotoxicity, CCK8 [9]: 68.8 nM
B3	1.77 nM	–	–	–	36.8%	86.4%	94%	97.2%	98.9%	99.6%	–	–	–	–	binding result [10]: no binding (tested: 100 nM); binding result [11]: no binding (tested: 100 nM); EC50 [12]: 0.042 µg/mL; EC50 [13]: 0.042 µg/mL; % of cells in gate P3 at 100 nM [14]: 0.7%; binding result [15]: no binding (tested: initial concentration of 2 µg/mL); % of cells in gate P3 at 100 nM [16]: 0.6%; binding result [17]: no binding (tested: 100 nM); koff [18]: 0.000155 s⁻¹; kon [18]: 886000 M⁻¹ s⁻¹; % of cells in gate P3 at 100 nM [19]: 0.4%; Kd [20]: 0.175 nM
B4	3.69 nM	0.372 nM	0.000279 s⁻¹	750000 M⁻¹ s⁻¹	26.5%	93.1%	98.7%	99.5%	99.7%	99.7%	no binding (tested: 100 nM)	1.54 nM	no binding (tested: 100 nM)	no binding (tested: 100 nM)	–
B5	–	383 nM	0.0491 s⁻¹	128000 M⁻¹ s⁻¹	–	–	–	–	–	–	–	69.3 nM	–	–	–

From patent US20250262316A1 (BIO THERA SOLUTIONS, published 2025)
